± gives the standard deviation.
Test: protein stability index of a GFP-peptide fusion (GPS, HEK-293T) (PSI 1-6); higher = more stable
[1] = treatment: DMSO, c terminus: a fixed tail appended
[2] = treatment: MLN4924 1 uM, 8 h, c terminus: a fixed tail appended
[3] = treatment: DMSO, c terminus: native
[4] = treatment: MLN4924 1 uM, 8 h, c terminus: native
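Also: 24-mer peptide tiles fused after GFP, lentivirally expressed, FACS-sorted into six equal bins by GFP/DsRed ratio, decoded by Illumina sequencing, PSI is the read-weighted mean bin number.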

Row | Sequence | protein stability index [1] | protein stability index [2] | protein stability index [3] | protein stability index [4]
1 | CFNRSREYQLNDSAAYYLNDLDRI [GNAI1] | 2.51 ± 0.25 | 2.46 ± 0.23 | – | –
2 | CFPSTQKPTEPSVPVQPLLPESLA [FBF1] | 4.14 ± 0.23 | 4.16 ± 0.15 | – | –
3 | CGACLTQLFFFHLFVGVDCFLLTA [OR3A1] | 3.07 ± 0.2 | 3.02 ± 0.33 | – | –
4 | CGTKYPVEWAKFCCECGIRRMIL [ZC2HC1A] | – | – | 3.11 ± 0.39 | 3.53 ± 0.055
5 | CHEEVYAGSHQYPGRGVYLLKFDN [ACBD3] | 2 ± 0.64 | 2.16 ± 0.8 | – | –
6 | CHHGLVADSLQASMEKDATLNVDR [DLC1] | 4.35 ± 0.12 | 4.47 ± 0.25 | – | –
7 | CKGRDHGVLDALHVLEGLFRTDPE [ZSWIM9] | 2.8 ± 0.05 | 2.81 ± 0.26 | – | –
8 | CLMIGRDLVRLLQNVARIPEFELL [INTS3] | 2.49 ± 0.17 | 2.24 ± 0.25 | – | –
9 | CLTAGPEVAAQLPAVRQLLPCARV [ZSWIM9] | 2.94 ± 0.21 | 2.97 ± 0.41 | – | –
10 | CPAELRPQVPQPPSPAAVPRPPSN [TRAF3IP2] | 5.18 ± 0.13 | 5.01 ± 0.28 | – | –
11 | CRTYIIHYYLMDDTVEIREVHERN [EFHC1] | 2.55 ± 0.38 | 2.39 ± 0.29 | – | –
12 | CTEKFKTSRDRKDHMVRMHLYPAD [ZNF511] | 3.49 ± 0.38 | 3.48 ± 0.25 | – | –
13 | CVARPGTPSLLRFALASLLQSAPD [ZSWIM9] | 2.19 ± 0.18 | 2.24 ± 0.31 | – | –
14 | CYVGATVLRGRLYAIAGYDGNSLL [KLHL12] | 3.2 ± 0.34 | 2.57 ± 0.68 | – | –
15 | DAAEEEKYDMEVRVQKTSKELEDM [TNNI2] | 5.45 ± 0.24 | 5.46 ± 0.17 | – | –
16 | DAAHPTNVQRLAEPSQMLKHAVVN [CTNNB1] | 4.62 ± 0.19 | 4.62 ± 0.15 | – | –
17 | DAHFCAVCSDYASGYHYGVWSCEG [ESR2] | 2.2 ± 0.45 | 2.49 ± 0.42 | – | –
18 | DATLSLKQTILDKEEKQRRNVAKN [TTC32] | 4.99 ± 0.28 | 4.91 ± 0.19 | – | –
19 | DCLKACQEQIEAVLLNSLQQYRQD [CCND2] | 2.32 ± 0.35 | 2.33 ± 0.28 | – | –
20 | DCLQGIRKGLQHGFFDFETFDVDE [CDC14A] | 3.33 ± 0.3 | 3.62 ± 0.61 | – | –
21 | DDLMGILCKSVLEIERAIKQTQCP [FEM1C] | 2.07 ± 0.22 | 2.46 ± 0.29 | – | –
22 | DDSDTQQVVVLVRDNGDPSLSSTA [PCDHGC5] | 4.76 ± 0.16 | 4.83 ± 0.22 | – | –
23 | DEASAATPPSSRRVWSPPRVHKVE [ZBTB22] | 5 ± 0.073 | 4.99 ± 0.15 | – | –

Row | Sequence | protein stability index [1] | protein stability index [2] | protein stability index [3] | protein stability index [4]
24 | DEISDHAKVLTLSDDLERTIEERV [EIF5] | 5.16 ± 0.28 | 5.44 ± 0.11 | – | –
25 | DELIPEYLNFIRGVVDSEDLPLNI [HSP90AB1] | 3.22 ± 0.38 | 3.3 ± 0.47 | – | –
26 | DERTHRSDRPFKCNQCGKCFIQSS [ZNF8] | 2.98 ± 0.42 | 3.25 ± 0.47 | – | –
27 | DESGGPDNEDYPLFRELWRYHFAT [KLHDC10] | 2.95 ± 0.29 | 2.99 ± 0.27 | – | –
28 | DFQPREEAMLYHNQTAELRELLEF [P3H4] | 3.96 ± 0.28 | 4.01 ± 0.16 | – | –
29 | DFTLSKTNMARIREIMEKFGKQPV [CPXM2] | 2.71 ± 0.088 | 2.62 ± 0.33 | – | –
30 | DGPGGNLAHAFQPGPGIGGDAHFD [MMP1] | 4.95 ± 0.3 | 4.9 ± 0.14 | – | –
31 | DHSSRELSKILAKLERLKQQNEDL [FUT8] | 3.89 ± 0.12 | 4.03 ± 0.16 | – | –
32 | DHWNNEKERILLVTDKTLLICKYD [TPRG1] | 2.18 ± 0.32 | 2.47 ± 0.15 | – | –
33 | DIDLSLYIPRDVDETGITVASLER [ZC3H15] | 3.19 ± 0.28 | 3.5 ± 0.23 | – | –
34 | DIETACKLLNITADPMDWSPSNVQ [SPDEF] | 2.75 ± 0.42 | 2.77 ± 0.17 | – | –
35 | DIGAVYSHRPNQHNTVKLGAFQAQ [PRIM1] | 3.11 ± 0.41 | 3.19 ± 0.45 | – | –
36 | DIHITARIESDLTLESLSDEEIHP [DRICH1] | 4.85 ± 0.2 | 4.91 ± 0.19 | – | –
37 | DIHVGLRGVPLLEWETEVEMDKLR [CLCN6] | 3.98 ± 0.23 | 3.96 ± 0.41 | – | –
38 | DIISTVEFNHTGELLATGDKGGRV [PPP2R2B] | 3.16 ± 0.43 | 3.25 ± 0.5 | – | –
39 | DILPIHPPSGNSDLDPDAQNPML [BTBD10] | – | – | 5.46 ± 0.17 | 5.21 ± 0.22
40 | DKTDISSGRARQQDEEMLELPAPA [MLH1] | 5.42 ± 0.36 | – | – | –
41 | DKVIELHKSHRGMTPAEAEMHFLE [EPB41L3] | 4.51 ± 0.22 | 4.38 ± 0.14 | – | –
42 | DLFVENMPGFPDNIRPSSSGGYWV [APMAP] | 2.32 ± 0.26 | 2.49 ± 0.34 | – | –
43 | DLGGSIYANLALSGLIEIQSYPLC [SLC22A15] | 3.02 ± 0.72 | 2.63 ± 0.76 | – | –
44 | DLGNACWVHKHFTEDIQTRQYRSI [SRPK2] | 2.61 ± 0.23 | 2.72 ± 0.11 | – | –
45 | DLPPPPADPVLDLPLPPPPPEPLS [APBB1IP] | 5.39 ± 0.3 | 5.33 ± 0.18 | – | –
46 | DLSMDGLFGTIAYLPPERIREKSR [RIPK4] | 3.58 ± 0.27 | 3.66 ± 0.34 | – | –

Row | Sequence | protein stability index [1] | protein stability index [2] | protein stability index [3] | protein stability index [4]
47 | DLSPLLGFWQLPPPATQNTFGNST [PLAGL1] | 2.36 ± 0.43 | 2.5 ± 0.23 | – | –
48 | DNLLAAADKYALERLKVMCEEALC [SPOPL] | 2.75 ± 0.32 | 2.78 ± 0.15 | – | –
49 | DPCVISQEIMEKYNIKLKWTNQQK [CFHR2] | 3.19 ± 0.22 | 2.92 ± 0.22 | – | –
50 | DPMLDFYSDKNAKLTKESYPVVVA [TENT5D] | 3.77 ± 0.26 | 3.85 ± 0.23 | – | –
51 | DQENFQGKRMEFTSSCPNVSERSF [CRYBA1] | 4.49 ± 0.12 | 4.46 ± 0.24 | – | –
52 | DQFSALGLDPCLLEDELDKSVQGT [SLC6A17] | 5.18 ± 0.14 | 5.19 ± 0.14 | – | –
53 | DQNTVVTRQLSEENANLQEYVEKE [MTUS2] | 5.41 ± 0.25 | 5.51 ± 0.21 | – | –
54 | DQTGKEVADRWYSEIKNYNFQQPG [GLIPR2] | 4.15 ± 0.34 | 3.88 ± 0.31 | – | –
55 | DRAVNDYPSLYYPEMYILKGGYKE [CDC25B] | 2.67 ± 0.25 | 2.85 ± 0.46 | – | –
56 | DRKLHSRPRKLYKHSSTSSRIAKG [BTBD10] | 3.81 ± 0.15 | 3.79 ± 0.25 | – | –
57 | DRLVVTECQLTHSHPACPLEFAYY [ZSWIM9] | 2.53 ± 0.31 | 2.53 ± 0.32 | – | –
58 | DRVLRAMLKAEETCAPSVSYFKCV [CCND1] | 2.29 ± 0.25 | 2.35 ± 0.4 | – | –
59 | DSDVPEQRDSKCKVKWTHEEDEQL [MYBL2] | 5.44 ± 0.32 | 4.94 ± 0.76 | – | –
60 | DSVLKGMQAASSKMVSAEISENRK [SDE2] | 4.31 ± 0.23 | 4.68 ± 0.33 | – | –
61 | DVSLPRGAFPPRGPRPVQSVVPEM [CDK4] | 4.01 ± 0.33 | 3.94 ± 0.33 | – | –
62 | DWEAVPQRKLKPPIVPKIAGDGDT [PRKX] | 4.9 ± 0.21 | 4.87 ± 0.24 | – | –
63 | EAKAVGLISHVLEQNQEGDAAYRK [AUH] | 5.22 ± 0.22 | 5.18 ± 0.28 | – | –
64 | EAPKYHIPYWVAYYLALLLSLLVM [NSDHL] | 2.63 ± 0.36 | 2.53 ± 0.69 | – | –
65 | EAVTCGNTEVPARNLYAYIQKLTQ [PTPRD] | 2.81 ± 0.19 | 2.96 ± 0.36 | – | –
66 | ECEEGELSFYDAERHCHLYTFHAR [TRIM35] | 3.18 ± 0.27 | 3.21 ± 0.24 | – | –
67 | EDENIEVVYSKAASVPKVETVKSD [EIF5] | 5.44 ± 0.41 | 5.4 ± 0.19 | – | –
68 | EDPEENPYGPPPDAVQTSLMDEGA [RBBP5] | 5.56 ± 0.33 | 5.46 ± 0.29 | – | –
69 | EDSAQNCFALIPKAPKKDVIKMLV [EFHC1] | 2.69 ± 0.4 | 2.97 ± 0.26 | – | –

Row | Sequence | protein stability index [1] | protein stability index [2] | protein stability index [3] | protein stability index [4]
70 | EEAEWESINVLLMMHGLKPLSLVK [CEP70] | 2.36 ± 0.66 | 2.31 ± 0.35 | – | –
71 | EEARRNRLMRDMAQLRLQLEVSQL [SMG5] | 2.25 ± 0.27 | 2.41 ± 0.29 | – | –
72 | EEDSILIIPTPDEEEKILRVKLEE [ZNF24] | 5.03 ± 0.14 | 5 ± 0.31 | – | –
73 | EEETVTTKHIHITQATETTTTRHK [CLINT1] | 5.15 ± 0.2 | 5.19 ± 0.44 | – | –
74 | EEGPTVVLNPHPSLGYKEIRKGES [CHGA] | 4.96 ± 0.29 | 5.03 ± 0.27 | – | –
75 | EEHGLQQERPRPEPGRLGSSSPAS [PXN] | 5.25 ± 0.43 | 5.1 ± 0.15 | – | –
76 | EENRLREELRQEWEAKQEKIKSEE [FAM50A] | 5.59 ± 0.14 | 5.52 ± 0.21 | – | –
77 | EEPQWVPDKECRRCMQCDAKFDFL [ZFYVE21] | 2.85 ± 0.45 | 2.95 ± 0.39 | – | –
78 | EFRRWRDTGVAFELRDSSAYHVPN [DNAAF3] | 2.75 ± 0.24 | 3 ± 0.32 | – | –
79 | EFSRATAEKVNQDMCMKVPDDPEH [CRYL1] | 5.62 ± 0.17 | 5.12 ± 0.75 | – | –
80 | EFYHDEFKRWIYLNDQNLCIPASS [GAN] | 2.75 ± 0.28 | 2.74 ± 0.13 | – | –
81 | EGCKSFFKRSVRRNLSYTCRANRN [NR2F2] | 3.34 ± 0.36 | 3.52 ± 0.31 | – | –
82 | EGHQAWIVGIVEKGNRTARIIDKP [SEPHS2] | 1.95 ± 0.24 | 2.42 ± 0.43 | – | –
83 | EHGDQLLSIRCQHQEQVEDLTASH [MTUS2] | 5.25 ± 0.23 | 5.09 ± 0.22 | – | –
84 | EHGYENMNHFTVNLNREEKIIREI [TRIM55] | 3.64 ± 0.19 | 3.85 ± 0.27 | – | –
85 | EIATKPHEKIGFPAARRCHSCVQI [KLHDC10] | 2.43 ± 0.29 | 2.59 ± 0.2 | – | –
86 | EKEMKAQEQRLGIRISMSHEEEPL [GMPPB] | 5.23 ± 0.25 | 5.24 ± 0.086 | – | –
87 | EKEMQKMNPYKIDIGAVYSHRPNQ [PRIM1] | 3.64 ± 0.43 | 3.44 ± 0.32 | – | –
88 | EKFSDEGDSDSALDSVSPCPSSPK [DLC1] | 5.41 ± 0.51 | 5.58 ± 0.13 | – | –
89 | ELADHIERLKANDNLKFSQEYESI [PTPRD] | 3.48 ± 0.25 | 3.74 ± 0.28 | – | –
